B1: Glutamate dehydrogenase, P96110 (parent)
chain: MPEKSLYEMAVEQFNRAASLMDLESDLAEVLRRPKRVLIVEFPVRMDDGHVEVFTGYRVQHNVARGPAKGGIRYHPDVTLDEVKALAFWMTWKTAVMNLPFGGGKGGVRVDPKKLSRNELERLSRRFFSEIQVIIGPYNDIPAPDVNTNADVMAWYMDTYSMNVGHTVLGIVTGKPVELGGSKGREEATGRGVKVCAGLAMDVLGIDPKKATVAVQGFGNVGQFAALLISQELGSKVVAVSDSRGGIYNPEGFDVEELIRYKKEHGTVVTYPKGERITNEELLELDVDILVPAALEGAIHAGNAERIKAKAVVEGANGPTTPEADEILSRRGILVVPDILANAGGVTVSYFEWVQDLQSFFWDLDQVRNALEKMMKGAFNDVMKVKEKYNVDMRTAAYILAIDRVAYATKKRGIYP

Variants of: B1
Conditions: Thermotoga maritima (strain ATCC 43589 / DSM 3109 / JCM 10099 / NBRC 100826 / MSB8), pH 7, CD, sodium phosphate 20 mM, reversible: yes, structure 1B26, whole UniProt chain shown

Row | Variant | ddG of mutation (higher = less stable) (20 °C, GdnHCl) [kcal/mol] | denaturant m value (20 °C, GdnHCl) [kcal/mol/M] | denaturant midpoint (higher = more stable) (20 °C, GdnHCl) [M] | unfolding free energy (20 °C, GdnHCl) [kcal/mol] | ddG of mutation (higher = less stable) (20 °C, Urea) [kcal/mol] | denaturant m value (20 °C, Urea) [kcal/mol/M] | denaturant midpoint (higher = more stable) (20 °C, Urea) [M] | unfolding free energy (20 °C, Urea) [kcal/mol] | ddG of mutation (higher = less stable) (69.5 °C, Thermal) [kcal/mol] | Tm (Thermal) [°C] | change of melting temperature, mutant - wild type (higher = more stable) (Thermal) [°C] | unfolding enthalpy (van 't Hoff) (Thermal) [kcal/mol]
1 | MPEKSLYEMAVEQFNRAASLMDLESDLAEVLRRPKRVLIVEFPVRMDDGHVEVFTGYRVQHNVARGPAKGGIRYHPDVTLDEVKALAFWMTWKTAVMNLPFGGGKGGVRVDPKKLSRNELERLSRRFFSEIQVIIGPYNDIPAPDVNTNADVMAWYMDTYSMNVGHTVLGIVTGKPVELGGSKGREEATGRGVKVCAGLAMDVLGIDPKKATVAVQGFGNVGQFAALLISQALGSKVVAVSDSRGGIYNPEGFDVEELIRYKKEHGTVVTYPKGERITNEELLELDVDILVPAALEGAIHAGNAERIKAKAVVEGANGPTTPEADEILSRRGILVVPDILANAGGVTVSYFEWVQDLQSFFWDLDQVRNALEKMMKGAFNDVMKVKEKYNVDMRTAAYILAIDRVAYATKKRGIYP [E232A] | 0.95 | 3 | 1.41 | 4.17 | 0.35 | 1.6 | 3.08 | 4.5 | 0.17 | 68.4 | -1.1 | 41
2 | MPEKSLYEMAVEQFNRAASLMDLESDLAEVLRRPKRVLIVEFPVRMDDGHVEVFTGYRVQHNVARGPAKGGIRYHPDVTLDEVKALAFWMTWKTAVMNLPFGGGKGGVRVDPKKLSRNELERLSRRFFSEIQVIIGPYNDIPAPDVNTNADVMAWYMDTYSMNVGHTVLGIVTGKPVELGGSKGREEATGRGVAVCAGLAMDVLGIDPKKATVAVQGFGNVGQFAALLISQALGSKVVAVSDSRGGIYNPEGFDVEELIRYKKEHGTVVTYPKGERITNEELLELDVDILVPAALEGAIHAGNAERIKAKAVVEGANGPTTPEADEILSRRGILVVPDILANAGGVTVSYFEWVQDLQSFFWDLDQVRNALEKMMKGAFNDVMKVKEKYNVDMRTAAYILAIDRVAYATKKRGIYP [K194A E232A] | -0.92 | 2.73 | 2.04 | 6.04 | -0.51 | 1.42 | 3.67 | 5.36 | – | 71.2 | 1.7 | 52.7
3 | MPEKSLYEMAVEQFNRAASLMDLESDLAEVLRRPKRVLIVEFPVRMDDGHVEVFTGYRVQHNVARGPAKGGIRYHPDVTLDEVKALAFWMTWKTAVMNLPFGGGKGGVRVDPKKLSRNELERLSRRFFSEIQVIIGPYNDIPAPDVNTNADVMAWYMDTYSMNVGHTVLGIVTGKPVELGGSKGREEATGAGVAVCAGLAMDVLGIDPKKATVAVQGFGNVGQFAALLISQELGSKVVAVSDSRGGIYNPEGFDVEELIRYKKEHGTVVTYPKGERITNEELLELDVDILVPAALEGAIHAGNAERIKAKAVVEGANGPTTPEADEILSRRGILVVPDILANAGGVTVSYFEWVQDLQSFFWDLDQVRNALEKMMKGAFNDVMKVKEKYNVDMRTAAYILAIDRVAYATKKRGIYP [R191A K194A] | – | – | – | – | 0.16 | 1.33 | 3.21 | 4.69 | – | 67.5 | -2 | 53.2

Source: FireProtDB (doi:10.1021/bi020461s)
